Assay results reported in doi:10.1101/501064 (bioRxiv, 2018).
Each block holds one binder with its values, some of them ahead of it. Non-standard residues stand in square brackets, D forms with d. No end group written: not given here. pS = N[C@@H](COP(=O)(O)O)C(=O)O

Experiments:
[1] = target: T1, human Scribble PDZ3 domain (1005-1094) (human, UniProt Q14160 1005-1094); assay: ITC
T1 sequence (looked up): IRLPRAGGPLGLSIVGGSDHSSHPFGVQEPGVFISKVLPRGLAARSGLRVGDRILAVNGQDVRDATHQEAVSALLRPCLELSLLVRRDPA

[2] = target: human Scribble PDZ1 domain (728-815) (human, UniProt Q14160 728-815); assay: ITC
Sequence of human Scribble PDZ1 domain (728-815) (Q14160 728-815): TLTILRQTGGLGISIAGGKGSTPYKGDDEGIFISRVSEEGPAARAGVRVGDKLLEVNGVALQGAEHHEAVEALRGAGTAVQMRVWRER

B1: MCC 8-mer peptide spanning the C-terminus (PDZ-binding motif) of human MCC (peptide)
peptide: PHTNETSL
Kd [1]: 5 µM
Kd [2]: 7.7 µM

B2: MCC_SE 8-mer peptide (Ser to Glu at position -1) (peptide)
peptide: PHTNETEL
Kd [1]: 4.5 µM
Kd [2]: 7.2 µM

The remaining binders from weak to strong by Kd [1], led by results:

Kd [1]: 3.7 µM
Kd [2]: 6.1 µM
B4: phosphorylated MCC 8-mer peptide (phospho-Ser at position -1) (peptide)
peptide: PHTNET[pS]L

Kd [1]: 3.4 µM
Kd [2]: 7 µM
B3: MCC_SD 8-mer peptide (Ser to Asp at position -1) (peptide)
peptide: PHTNETDL
